Laboratory results as given in patent publication US20080292620A1 (Novartis, published 2008).

T1: recombinant extracellular domain (ECD) of the human prolactin receptor (PRLR) (human, UniProt P16471 25-234)
T1 construct: also called PRLR ECD; Human PRLR; not shown: His tag
T1 sequence: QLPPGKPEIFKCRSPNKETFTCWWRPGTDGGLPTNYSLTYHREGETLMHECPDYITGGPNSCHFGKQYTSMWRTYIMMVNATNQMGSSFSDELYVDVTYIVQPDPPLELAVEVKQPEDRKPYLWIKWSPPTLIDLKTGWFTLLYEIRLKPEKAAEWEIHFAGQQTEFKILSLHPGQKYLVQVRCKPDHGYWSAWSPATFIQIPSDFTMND

T2: cynomolgus PRLR ECD (cynomolgus, UniProt A0A2K5WXK1 25-234)
T2 construct: extracellular domain; also called Cyno PRLR
T2 sequence: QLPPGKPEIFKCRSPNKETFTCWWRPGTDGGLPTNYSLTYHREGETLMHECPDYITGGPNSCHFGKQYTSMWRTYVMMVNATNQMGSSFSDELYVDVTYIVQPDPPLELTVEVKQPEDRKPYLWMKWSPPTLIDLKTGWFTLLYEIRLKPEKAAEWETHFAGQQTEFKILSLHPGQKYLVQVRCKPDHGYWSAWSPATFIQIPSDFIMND

T3: rat PRLR ECD (rat, UniProt P05710 20-229)
T3 construct: extracellular domain
T3 sequence (looked up): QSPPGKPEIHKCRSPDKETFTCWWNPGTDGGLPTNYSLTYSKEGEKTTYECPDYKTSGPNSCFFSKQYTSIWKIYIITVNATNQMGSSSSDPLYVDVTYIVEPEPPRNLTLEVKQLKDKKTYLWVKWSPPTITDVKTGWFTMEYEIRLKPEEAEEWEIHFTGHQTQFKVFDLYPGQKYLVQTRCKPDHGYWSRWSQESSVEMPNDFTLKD

T4: murine PRLR ECD (mouse, UniProt Q08501 20-229)
T4 construct: extracellular domain; also called Mouse PRLR
T4 sequence (looked up): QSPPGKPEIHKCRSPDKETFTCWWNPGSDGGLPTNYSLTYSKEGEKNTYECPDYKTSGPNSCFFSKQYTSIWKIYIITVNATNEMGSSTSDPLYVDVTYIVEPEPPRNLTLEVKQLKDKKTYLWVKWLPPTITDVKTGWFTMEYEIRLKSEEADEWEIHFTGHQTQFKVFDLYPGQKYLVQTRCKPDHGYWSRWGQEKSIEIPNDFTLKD

B1: XPA.06.217 (Fc fusion)
chain 1: EVQLLESGGGLVQPGGSLRLSCAASGFTFSSYAMHWVRQAPGKGLEWVSSISSSSSSIYYADSVKGRFTISRDNSKNTLYLQMNSLRAEDTAVYYCARGGGQQLGAFDIWGQGTLVTV
chain 2: not shown
B2: XPA.06.158 (Fc fusion)
chain 1: EVQLLESGGGLVQPGGSLRLSCAASGFTFSSYGMHWVRQAPGKGLEWVSLISWDGYRTHYADSVKGRFTISRDNSKNTLYLQMNSLRAEDTAMYYCTTGASYHALWGQGTLVTV
chain 2: QSVLTQPPSASGTPGQRVTISCSGSRSNIGNNYVSWYQQLPGTAPKLLIYDDIKRPSGVPDRFSGSKSGTSASLAISGLRSEDEADYYCATWDDSLNGPVFGGGTKLTVL
B3: he.06.275-1 (antibody, V domains shown)
VH: DVQLQESGPGLVKPSQTLSLTCTVTGYSITSDYAWNWIRQFPGKKLEWMGYISYSGSTSYNPSLKSRITISRDTSKNQFSLQLNSVTAADTATYFCARDYGYVFDYWGQGTTLTVSS
VL: DVQITQSPSSLSASPGDRITLTCRASKNIYKYLAWYQEKPGKTNNLLIYSGSTLHSGIPSRFSGSGSGTDFTLTISSLQPEDFAMYYCQQHNDYPYTFGQGTKLEIK
notes: Human Engineered
B4: he.06.275-2 (antibody, V domains shown)
VH: QVQLQESGPGLVKPSQTLSLTCTVSGYSITSDYAWNWIRQFPGKGLEWMGYISYSGSTSYNPSLKSRITISRDTSKNQFSLQLNSVTAADTAVYFCARDYGYVFDYWGQGTTLTVSS
VL: DVQITQSPSSLSASPGDRITLTCRASKNIYKYLAWYQEKPGKTNNLLIYSGSTLHSGIPSRFSGSGSGTDFTLTISSLQPEDFAMYYCQQHNDYPYTFGQGTKLEIK
notes: Human Engineered
B5: he.06.275-3 (antibody, V domains shown)
VH: DVQLQESGPGLVKPSQTLSLTCTVTGYSITSDYAWNWIRQFPGKKLEWMGYISYSGSTSYNPSLKSRITISRDTSKNQFSLQLNSVTAADTATYFCARDYGYVFDYWGQGTTLTVSS
VL: DVQITQSPSSLSASPGDRITLTCRASKNIYKYLAWYQEKPGKANKLLIYSGSTLHSGIPSRFSGSGSGTDFTLTISSLQPEDFAMYYCQQHNDYPYTFGQGTKLEIK
notes: Human Engineered
B6: XPA.06.178 (Fc fusion)
chain 1: EVQLLESGGGLVQPGGSLRLSCAASGFTFDDYGMSWVRQVPGKGLEWVSLISWDGGSTYYADSVKGRFTISRDNSKNTLYLQMNSLRAEDTAVYYCARPSGAYPTPFDNWGQGTLVTV
chain 2: not shown
B7: XPA.06.147 (Fc fusion)
chain 1: EVQLLESGGGLVQPGGSLRLSCAASGFTFSSYGMHWVRQAPGKGLEWVSAIGGRGVSTYYADSVKGRFTISRDNSKNTLYLQMNSLRAEDTAVYYCARGSNWTHALGFDPWGQGTLVTV
chain 2: not shown
B8: XPA.06.145 (Fc fusion)
chain 1: EVQLLESGGGLVQPGGSLRLSCAASGFTFSNYGMHWVRQAPGKGLEWVSLISWDGGRTSYTDSVKGRFTISRDNSKNTLYLQMNSLRAEDTAVYYCARGLIGDNWGQGTLVTVSS
chain 2: QSVLTQPPSASGTPGQRVTISCTGSSSNIGAGYDVHWYQQLPGTAPKLLIYDNNKRPSGVPDRFSGSKSGTSASLAISGLRSEDEADYYCAAWDDSLNGWVFGGGTKLTVL
B9: he.06.642-1 (antibody, V domains shown)
VH: EVQLVESGGGLVQPGGSLRLSCAVSGFTFSSYGMSWVRQAPGKRLEWVATVSSGGTYTYYPDSVKGRFTISRDNSKNTLYLQMNSLRAEDTAMYYCARHRGNYYATYYYAMDYWGQGTLVTVSS
VL: DIVLTQSPDSLAVSLGERATINCKASKSVSTSGYTYMHWYQQKPGQPPKLLIYLASNRESGVPDRFSGSGSGTDFTLTISPVQAEDVATYYCQHSGELPPSFGQGTKLEIK
notes: Human Engineered
B10: he.06.642-2 (antibody, V domains shown)
VH: EVQLVESGGGLVQPGGSLRLSCAVSGFTFSSYGMSWVRQAPGKGLEWVATVSSGGTYTYYPDSVKGRFTISRDNSKNTLYLQMNSLRAEDTAVYYCARHRGNYYATYYYAMDYWGQGTLVTVSS
VL: DIVLTQSPDSLAVSLGERATINCKASKSVSTSGYTYMHWYQQKPGQPPKLLIYLASNRESGVPDRFSGSGSGTDFTLTISPVQAEDVATYYCQHSGELPPSFGQGTKLEIK
notes: Human Engineered
B11: XPA.06.141 (Fc fusion)
chain 1: EVQLLESGGGLVQPGGSLRLSCAASGFTFSNSGMHWVRQAPGKGLEWVAAISYDGSNKYYADSVKGRFTISRDNSKNTLYLQMNSLRAEDTAVYYCARADSSGTVDYWGQGTLVTV
chain 2: not shown
B12: XPA.06.167 (Fc fusion)
chain 1: EVQLLESGGGLVQPGGSLRLSCAASGFTFGSYGMHWVRQAPGKGLEWVSLISWDGGSTYYADSVKGRFTISRDNSKNTLYLQMNSLRAEDTAVYYCASSISAAATGLDYWGQGTLVTV
chain 2: not shown
B13: XPA.06.131 (Fc fusion)
chain 1: EVQLLESGGGLVQPGGSLRLSCAASGFTFNSYPVHWVRQAPGKGLEWVAVISYDGNTKYYADSVKGRFTISRDNSKNTLYLQMNSLRAEDTAVYYCARDNPPFDYWGQGTLATV
chain 2: QSVLTQPPSASGTPGQRVTISCSGSSSNIGNNYVSWYQQLPGTAPKLLIYDNNNRPSGVPDRFSGSKSGTSASLAISGLRSEDEADYYCEAWDDTLNGPHVVFGGGTKLTVL

Key:
[1] = molecular target: T1, recombinant extracellular domain (ECD) …; experiment: Biacore 2000 SPR, antibody captured, PRLR ECD injected
[2] = molecular target: T1, recombinant extracellular domain (ECD) …; experiment: Biacore 2000 SPR, antibody captured on Protein A/G, PRLR ECD titrated, 1:1 Langmuir, 25 C
cynomolgus PRLR ECD [3] = molecular target: T2, cynomolgus PRLR ECD; experiment: Biacore SPR, antibody captured on Protein A/G, kinetic titration of PRLR ECD, 1:1 Langmuir
Procedure: (§1) Affinity of the chimerized and Human Engineered™ antibodies determined by Biacore analysis. Briefly, a CM5 sensor chip (Biacore) immobilized with Protein A/G (Pierce) via NHS/EDC was used to capture approximately 600 RU of antibody on the chip surface. Five concentrations of PRLR ECD beginning at 5 ug/mL (185 nM) and serially diluted at 5× dilution to 0.3 nM were injected from lowest to highest concentration in the kinetic titration injection mode, and 15 minutes of dissociation data was collected. The experiments were double-referenced, i.e. an adjacent flow cell response was subtracted automatically, and the response from a buffer injection experiment was subtracted from the experimental data set. Kinetic and derived parameters (kₐ, kd and KD) were determined by fitting to a 1:1 Langmuir model using BiaEval software customized to the kinetic titration injection mode. Affinity measurements of both chimeric and all Human Engineered™ antibodies against human and cynomolgus PRLR ECD are summarized in Table 9 and Table 10.

[4] = molecular target: T1, recombinant extracellular domain (ECD) …; experiment: as above
Procedure: as §1

rat PRLR ECD = molecular target: T3, rat PRLR ECD; experiment: Biacore SPR, antibody covalently immobilized on CM4 chip, PRLR ECD 111 to 1.37 nM
cynomolgus PRLR ECD [5] = molecular target: T2, cynomolgus PRLR ECD; experiment: as above
murine PRLR ECD = molecular target: T4, murine PRLR ECD; experiment: as above
[6] = molecular target: T1, recombinant extracellular domain (ECD) …; experiment: as above

Row | Binder | Kd [1] | Kd [2] | koff [2] | kon [2] | Kd (cynomolgus PRLR ECD [3]) | Kd [4] | also measured
1 | B1 | 7 nM | – | – | – | – | – | –
2 | B2 | 0.7 nM | 0.7 nM | 7.3e-05 s⁻¹ | 110000 M⁻¹ s⁻¹ | – | – | –
3 | B3 | – | – | – | – | 1.6 nM | 0.5 nM | –
4 | B4 | – | – | – | – | 1.9 nM | 0.61 nM | –
5 | B5 | – | – | – | – | 1.3 nM | 0.43 nM | –
6 | B6 | 20 nM | – | – | – | – | – | –
7 | B7 | – | 9.8 nM | 0.0053 s⁻¹ | 550000 M⁻¹ s⁻¹ | – | – | –
8 | B8 | 10 nM | – | – | – | – | – | –
9 | B9 | – | – | – | – | 31 nM | 2 nM | –
10 | B10 | – | – | – | – | 47 nM | 3.1 nM | Kd (rat PRLR ECD): 1.9 nM; Kd (cynomolgus PRLR ECD [5]): 38.9 nM; Kd (murine PRLR ECD): 2.7 nM; Kd [6]: 2.6 nM
11 | B11 | – | 8.4 nM | 0.00053 s⁻¹ | 63000 M⁻¹ s⁻¹ | – | – | –
12 | B12 | 4 nM | – | – | – | – | – | –
13 | B13 | – | 2.1 nM | 7.3e-05 s⁻¹ | 34000 M⁻¹ s⁻¹ | – | – | –
